From patent publication US20050048073A1, “Methods of determining west nile virus epitopes and method of using the same” (priority 2001, published 2005)
Where “and” joins values, the source holds several entries; their conditions need not be identical. Identical values can stand only once.

Assays:
HLA B*07 (human) [1] = assay: T2B7 HLA stabilisation assay, flow cytometry, 10/20/200 ug/ml, four assays; conditions: for Binding results (total of four assays): scale: of 3 concentrations positive
HLA B*07 (human) [2] = assay: T2B7 HLA stabilisation assay, flow cytometry, peptide at 200 ug/ml

Binder | Binding number (binding score) (HLA B*07 (human) [1]) | Binding results (total of four assays) (of 3 concentrations positive, in 1 assay) (HLA B*07 (human) [1]) | Binding results (total of four assays) (HLA B*07 (human) [1]; in 2 assays) | Avg. Fold Inc. @ 200 (fold over background) (HLA B*07 (human) [2]) | Avg. MFI 200 (HLA B*07 (human) [2]) [MFI] | Binding results (total of four assays) (HLA B*07 (human) [1]; in 3 assays) | Binding results (total of four assays) (HLA B*07 (human) [1]; in 4 assays)
TPAAPSYTLK [WNVB7 0009] | 8 | 3 and 1 | 2 | 1.5 | 954 |  | 
TPGLRCLNLD [WNVB7 0024] | 2 |  | 1 | 1 | 850 |  | 
IPAGFEPEML [WNVB7 0008] | 10 | 1 |  | 1.9 | 1210 | 3 | 
PEDIDCWCTK [WNVB7 3399] | 1 | 1 |  | 1.1 | 990 |  | 
RPQRHDEKTL [WNVB7 0019] | 11 | 2 |  | 2.8 | 1640 | 3 | 
SPHRVPNYNL [WNVB7 0020] | 12 |  |  | 2.5 | 1610 |  | 3
GPGHEEPQLV [WNVB7 0011] | 2 | 2 |  | 1 | 849 |  | 
VPGTKIAGML [WNVB7 0018] | 6 | 3 and 2 | 1 | 1.7 | 1090 |  | 
VPCRGQDELV [WNVB7 0010] | 4 |  | 2 | 1 | 659 |  | 
RPAADGRTVM [WNVB7 0023] | 12 |  |  | 1.5 | 979 |  | 3
PETPQGLAKI [WNVB7 3403] | 0 |  |  | 1 | 589 |  | 0
KPTGSASSLV [WNVB7 0015] | 6 |  | 2 and 1 | 1.7 | 1070 |  | 
EPPEGVKYVL [WNVB7 0013] | 6 | 3 and 2 and 1 |  | 1.1 | 682 |  | 
RPRWIDARVY [WNVB7 0017] | 11 | 2 |  | 1.9 | 1710 | 3 | 
